T1: Periostin (UniProt Q15063 496-836)
T1 sequence: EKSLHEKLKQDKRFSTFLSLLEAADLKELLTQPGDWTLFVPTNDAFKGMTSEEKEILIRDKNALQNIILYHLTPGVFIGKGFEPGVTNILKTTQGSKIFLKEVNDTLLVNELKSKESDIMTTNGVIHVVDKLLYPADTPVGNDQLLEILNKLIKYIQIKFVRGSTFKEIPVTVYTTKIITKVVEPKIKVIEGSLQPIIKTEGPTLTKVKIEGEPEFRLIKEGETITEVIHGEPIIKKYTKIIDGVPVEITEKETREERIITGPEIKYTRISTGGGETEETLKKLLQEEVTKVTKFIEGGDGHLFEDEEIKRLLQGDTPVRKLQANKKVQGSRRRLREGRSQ

B1: PL2 (ssDNA)
DNA: CACCTAATACGACTCACTATAGCGGATCCGAAAGTCAACGCCAGATAAAAACAATTTGCCTTCCTCCGCCCCTGGCTCGAACAAGCTTGC
B2: PL5 (ssDNA)
DNA: CACCTAATACGACTCACTATAGCGGATCCGATTCGAACCAGAATATTAGTCGCAAAATCTTGATGCAGTCACTGGCTCGAACAAGCTTGC
B3: PL2trunc (ssDNA)
DNA: TCAACGCCAGATAAAAACAATTTGCCTTCCTCCGCCCCTGGCTCGAA
B4: PL5trunc (ssDNA)
DNA: TAATACGACTCACTATAGCGGATCCGATTCGAACCAGAATATTAGTCGCAAAATCTTGATG

Target: T1, Periostin
Test: magnetic bead fluorescence assay; 5 mM Mg2+; 20 mM Tris-HCl pH 8.0, 100 mM NaCl, 5 mM KCl, 5 mM MgCl2, 0.05% Tween 20, 25 °C, 1 h; His-tagged periostin on His-tag magnetic beads
Conditions: protein: recombinant; tags: 6xHis (pET-28a); label: 5' Cy3

Binder	Kd
B1	45.7 nM
B2	50.1 nM
B3	10.1 nM
B4	37 nM

Source: paper PMC10290134, “Development of a one-shot dual aptamer-based fluorescence nanosensor for rapid, sensitive, and label-free detection of periostin”
